Values belong to the molecule of their own block, whether it stands above or below them.
Columns and labels:
[1] = target: Flag-tagged Nodal precursor (mouse); test: non-reducing SDS-PAGE with immunoblot
[2] = target: the molecule itself; test: non-reducing SDS-PAGE with immunoblot

stoichiometry N [1]: 2
Molecule: Flag-tagged Nodal precursor (natural protein)

B1: mature MycBMP4 (domain or fragment, mouse, UniProt P21275 293-408, looked up)
chain: SPKHHPQRSRKKNKNCRRHSLYVDFSDVGWNDWIVAPPGYQAFYCHGDCPFPLADHLNSTNHAIVQTLVNSVNSSIPKACCVPTELSAISMLYLDEYDKVVLKNYQEMVVEGCGCR
stoichiometry N [2]: 2
